According to US20150064714A1, “Polypeptides containing a modified fragment of the peptide IF1” (LIFESEARCH, priority 2013, published 2015):
Blank lines part the entries; values can stand above or below the molecule they belong to. No end group written: not given here. *: point of attachment. MTSL = spin label, CC1(C)C=C(CS*)C(C)(C)N1[O]

How the values were obtained:
[1] = test system: F1-ATPase or SMP (F0F1-ATPase); experiment: Measurement of the affinity of a labelled polypeptide for the ATPase (kinetics of inhibition of ATP hydrolysis, NADH disappearance at 340 nm); type: biochemical; details: kinetic results; 25° C., pH 6.5; polypeptide 15 nM to 2 μM
Procedure: The hydrolysis of ATP by F1-ATPase or SMP (F0F1-ATPase) was measured according to the reaction illustrated below by following the disappearance of NADH over time at 340 nm.
This reaction is carried out in a thermostatically controlled vessel (25° C.) in which the reaction medium pH 6.5 (50 mM MES, 20 mM KCl, 1 mM MgCl2, 0.4 mM NADH, 1 mM PEP, 20 units/mL pyruvate kinase and 50 unit/mL lactate dehydrogenase) is stirred. In the case of measurement of hydrolysis of ATP by the SMPs, the vessel also contains 3 μM antimycin and 3 μM FCCP.
After recording for 2 to 4 minutes, a labelled polypeptide of the invention is injected into the measurement vessel at a concentration range of 15 nM to 2 μM and the ATPase activity decreases. The recordings are analysed and adjusted with a decreasing monoexponential function (equation 1 shown below) corresponding to the decline in the ATPase activity.
By plotting the values of kapp obtained as a function of the concentration of IF1, the formation rate constant (kon) and dissociation rate constant (koff) of the inhibited complex F1ATPase/IF1 are determined according to the following equation: kapp=kon[I]+koff
The relationship between the ratio V(I)/V(0) and the concentration of labelled polypeptide of the invention are linked according to the following equation:
V(I)/V(0)=Vr+(1−Vr)/(1+[I]/k1),
in which Vr is the fraction of V0 insensitive to IF1 inhibition.

ATPase = ATPase (Homo sapiens, UniProt P06576+P25705); details: fragment of IF1 of less than 34 amino acids in a fusion protein; cited from earlier work
F1-ATPase = F1-ATPase (Bos taurus, UniProt P00829+P19483); details: point mutations of bovine IF1; cited from earlier work

affinity for ATP synthase compared to that of natural IF1 [1]: better affinity for ATP synthase
Molecule: SEQ ID NO: 25: cysteine-containing peptide: cysteine inserted into the median region of SEQ ID NO: 9, for labelling with the spin label MTSL (SEDSFVKRARATEDWFVRQREKEC(MTSL)QLRHLKEQLEKQRKK)

Molecule: fragment constituted by amino acid 14 to amino acid 46 of IF1: fragment of the protein IF1 in a fusion protein of US 2004/0072739 (AVRDAGGAFGKREQAEEERYFRARAKEQLAALK; UniProt P01096 39-71, looked up, fragment)
ATPase inhibiting activity (ATPase): better ATPase inhibiting activity

B1: Y33W: modified bovine IF1 containing the point mutation Y33W (Bason et al.) (protein, UniProt P01096 26-109, looked up, variant Y33W)
ATPase inhibitor, …: GSESGDNVRSSAGAVRDAGGAFGKREQAEEERWFRARAKEQLAALKKHHENEISHHAKEIERLQKEIERHKQSIKKLKQSEDDD
affinity for F1-ATPase compared to the natural bovine IF1 (F1-ATPase): better affinity
